Tests used:
PACAP27 = PACAP27 (UniProt P18509); assay: ELISA, biotinylated peptide on streptavidin plate
PACAP38 [1] = biological target: PACAP38 (UniProt P18509); assay: ELISA, biotinylated peptide on streptavidin plate
VIP = VIP (UniProt P01282); assay: ELISA, biotinylated peptide on streptavidin plate
PACAP38 [2] = biological target: PACAP38 (UniProt P18509); assay: competition ELISA, biotinylated PACAP38 to coated PAC1-Fc
PACAP38 [3] = biological target: PACAP38 (UniProt P18509); assay: competition ELISA, biotinylated PACAP38 to coated VPAC1-Fc
PACAP38 [4] = biological target: PACAP38 (UniProt P18509); assay: competition ELISA, biotinylated PACAP38 to coated VPAC2-Fc
CGRP = assay: cell-based or functional assay

Chain of PACAP38 (P18509 132-169 limits assumed): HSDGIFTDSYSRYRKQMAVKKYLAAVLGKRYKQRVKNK
Chain of PACAP27 (P18509 132-158 limits assumed): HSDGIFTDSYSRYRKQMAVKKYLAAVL
Chain of VIP (P01282 125-152 limits assumed): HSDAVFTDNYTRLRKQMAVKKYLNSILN

EC50 (PACAP27) [nM]	EC50 (PACAP38 [1]) [nM]	EC50 (VIP) [nM]	IC50 (PACAP38 [2]) [nM]	IC50 (PACAP38 [3]) [nM]	IC50 (PACAP38 [4]) [nM]	IC50, inhibition of cAMP production in SK-N-MC cells (CGRP) [nM]	Substance
0.11	0.06	9.58	6.46	1.34	1.42		LY-3451838 (antibody)
						40	Fremanezumab (antibody)
0.15	0.07	1.02	4.89	0.65	1.58		ALD-1910 (antibody)
